From article PMC7154896, “The Effect of Recombinant Tags on Citrus paradisi Flavonol-Specific 3-O Glucosyltransferase Activity” (Plants, 2020)

Tests used:
tagged Cp3GT = biological target: T1, tagged Cp3GT (Citrus x paradisi, UniProt C5MR71); test: glucosyltransferase assay, UDP inhibition; assay type: biochemical
T1 construct: recombinant, Pichia pastoris X-33 (pPicZa), C-terminal thrombin site and c-myc/6x His tags kept; cobalt IMAC
T1 sequence (C5MR71 1-468): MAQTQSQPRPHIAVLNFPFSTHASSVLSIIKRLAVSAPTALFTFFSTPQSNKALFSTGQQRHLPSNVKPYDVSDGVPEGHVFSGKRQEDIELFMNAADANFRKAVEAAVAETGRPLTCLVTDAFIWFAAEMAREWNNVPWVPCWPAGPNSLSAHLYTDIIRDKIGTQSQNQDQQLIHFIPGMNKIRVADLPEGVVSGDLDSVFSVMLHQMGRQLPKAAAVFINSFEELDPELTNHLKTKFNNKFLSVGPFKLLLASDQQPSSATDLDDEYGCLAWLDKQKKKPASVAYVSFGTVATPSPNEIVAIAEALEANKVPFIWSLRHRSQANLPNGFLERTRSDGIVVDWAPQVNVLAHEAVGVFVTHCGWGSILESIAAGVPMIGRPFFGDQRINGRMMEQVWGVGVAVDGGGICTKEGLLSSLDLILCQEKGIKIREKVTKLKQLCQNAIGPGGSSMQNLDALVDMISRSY

untagged Cp3GT = biological target: T2, untagged Cp3GT (Citrus x paradisi, UniProt C5MR71); test: glucosyltransferase assay, UDP inhibition; assay type: biochemical
T2 construct: recombinant, Pichia pastoris X-33 (pPicZa), C-terminal c-myc/6x His tags cut off with thrombin; cobalt IMAC; 56 kDa on gel
T2 sequence (C5MR71 1-468): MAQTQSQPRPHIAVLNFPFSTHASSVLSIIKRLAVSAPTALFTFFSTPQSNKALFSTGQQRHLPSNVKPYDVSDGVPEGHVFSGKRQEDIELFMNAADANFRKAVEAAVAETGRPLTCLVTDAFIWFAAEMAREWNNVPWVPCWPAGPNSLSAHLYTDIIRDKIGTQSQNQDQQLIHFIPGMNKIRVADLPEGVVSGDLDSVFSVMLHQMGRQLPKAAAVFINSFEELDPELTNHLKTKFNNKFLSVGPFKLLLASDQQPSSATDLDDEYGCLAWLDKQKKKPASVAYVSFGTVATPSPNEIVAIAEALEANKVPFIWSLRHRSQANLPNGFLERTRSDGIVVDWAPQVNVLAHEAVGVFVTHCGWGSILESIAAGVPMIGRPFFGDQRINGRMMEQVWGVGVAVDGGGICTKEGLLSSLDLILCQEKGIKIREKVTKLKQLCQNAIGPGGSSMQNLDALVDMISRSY

[1] = substrate: O=c1ccn([C@@H]2O[C@H](CO[P@@](=O)(O)O[P@@](=O)(O)O[C@H]3O[C@H](CO)[C@@H](O)[C@H](O)[C@H]3O)[C@@H](O)[C@H]2O)c(=O)[nH]1; test: glucosyltransferase assay, Lineweaver-Burk; assay type: biochemical, Citrus x paradisi; details: UDP-glucose varied 0–1333 µM, non-limiting acceptor (not named), 30 °C, pH 7.5, µM
Excerpt: (§1) glucosyltransferase assay, Lineweaver-Burk on tagged Cp3GT

[2] = substrate: O=c1c(O)c(-c2ccc(O)c(O)c2)oc2cc(O)cc(O)c12; test: glucosyltransferase assay, Lineweaver-Burk; assay type: biochemical, Citrus x paradisi; details: acceptor varied 0–667 µM, non-limiting UDP-glucose, 30 °C, pH 7.5, µM
Excerpt: as §1

purified protein = substrate: O=c1c(O)c(-c2ccc(O)cc2)oc2cc(O)cc(O)c12; test: purified protein; details: acceptor varied 0–667 µM, non-limiting UDP-glucose, 30 °C, pH 7.5, µM
[3] = substrate: O=c1ccn([C@@H]2O[C@H](CO[P@@](=O)(O)O[P@@](=O)(O)O[C@H]3O[C@H](CO)[C@@H](O)[C@H](O)[C@H]3O)[C@@H](O)[C@H]2O)c(=O)[nH]1; test: glucosyltransferase assay, Lineweaver-Burk; assay type: biochemical, Citrus x paradisi; details: UDP-glucose varied 0–1333 µM, non-limiting acceptor (not named), 30 °C, pH 7.5, µM; remark: listed apart in the source
Excerpt: (§2) glucosyltransferase assay, Lineweaver-Burk on untagged Cp3GT

[4] = substrate: O=c1c(O)c(-c2ccc(O)c(O)c2)oc2cc(O)cc(O)c12; test: glucosyltransferase assay, Lineweaver-Burk; assay type: biochemical, Citrus x paradisi; details: acceptor varied 0–667 µM, non-limiting UDP-glucose, 30 °C, pH 7.5, µM; remark: listed apart in the source
Excerpt: as §2

**Q.** With `O=c1ccn([C@@H]2O[C@H](COP(=O)(O)OP(=O)(O)O)[C@@H](O)[C@H]2O)c(=O)[nH]1` [UDP] as the molecule, how does the Ki (tagged Cp3GT) read?
**A.** 61.8 µM

**Q.** And the Ki (untagged Cp3GT)?
**A.** 73.1 µM

B1: tagged Cp3GT (Citrus x paradisi) (protein)
chain: MAQTQSQPRPHIAVLNFPFSTHASSVLSIIKRLAVSAPTALFTFFSTPQSNKALFSTGQQRHLPSNVKPYDVSDGVPEGHVFSGKRQEDIELFMNAADANFRKAVEAAVAETGRPLTCLVTDAFIWFAAEMAREWNNVPWVPCWPAGPNSLSAHLYTDIIRDKIGTQSQNQDQQLIHFIPGMNKIRVADLPEGVVSGDLDSVFSVMLHQMGRQLPKAAAVFINSFEELDPELTNHLKTKFNNKFLSVGPFKLLLASDQQPSSATDLDDEYGCLAWLDKQKKKPASVAYVSFGTVATPSPNEIVAIAEALEANKVPFIWSLRHRSQANLPNGFLERTRSDGIVVDWAPQVNVLAHEAVGVFVTHCGWGSILESIAAGVPMIGRPFFGDQRINGRMMEQVWGVGVAVDGGGICTKEGLLSSLDLILCQEKGIKIREKVTKLKQLCQNAIGPGGSSMQNLDALVDMISRSY
notes: recombinant, Pichia pastoris X-33 (pPicZa), C-terminal thrombin site and c-myc/6x His tags kept; cobalt IMAC
**Q.** What does the source list for B1?
**A.** Km [1]: 49.7 ± 5.32 µM; kcat [1]: 0.637 ± 0.092 s⁻¹; kcat/Km [1]: 12000 ± 2000 M⁻¹ s⁻¹; Km [2]: 51.9 ± 8.29 µM; kcat [2]: 1.84 ± 0.19 s⁻¹; kcat/Km [2]: 35000 ± 1000 M⁻¹ s⁻¹; Km (purified protein): 44.1 ± 3.41 µM; kcat (purified protein): 1.28 s⁻¹; kcat/Km (purified protein): 29000 M⁻¹ s⁻¹

B2: untagged Cp3GT (Citrus x paradisi) (protein)
chain: MAQTQSQPRPHIAVLNFPFSTHASSVLSIIKRLAVSAPTALFTFFSTPQSNKALFSTGQQRHLPSNVKPYDVSDGVPEGHVFSGKRQEDIELFMNAADANFRKAVEAAVAETGRPLTCLVTDAFIWFAAEMAREWNNVPWVPCWPAGPNSLSAHLYTDIIRDKIGTQSQNQDQQLIHFIPGMNKIRVADLPEGVVSGDLDSVFSVMLHQMGRQLPKAAAVFINSFEELDPELTNHLKTKFNNKFLSVGPFKLLLASDQQPSSATDLDDEYGCLAWLDKQKKKPASVAYVSFGTVATPSPNEIVAIAEALEANKVPFIWSLRHRSQANLPNGFLERTRSDGIVVDWAPQVNVLAHEAVGVFVTHCGWGSILESIAAGVPMIGRPFFGDQRINGRMMEQVWGVGVAVDGGGICTKEGLLSSLDLILCQEKGIKIREKVTKLKQLCQNAIGPGGSSMQNLDALVDMISRSY
notes: recombinant, Pichia pastoris X-33 (pPicZa), C-terminal c-myc/6x His tags cut off with thrombin; cobalt IMAC; 56 kDa on gel
**Q.** B2 was tested. Which Km [3] did it give?
**A.** 55.0 ± 4.97 µM

**Q.** And the kcat [3]?
**A.** 0.738 ± 0.125 s⁻¹

**Q.** What about the kcat/Km [3] of the same molecule?
**A.** 12000 ± 400 M⁻¹ s⁻¹

**Q.** And the Km [4]?
**A.** 42.4 ± 3.48 µM

**Q.** And the kcat [4]?
**A.** 1.54 ± 0.06 s⁻¹

**Q.** What about the kcat/Km [4] of the same molecule?
**A.** 36000 ± 1000 M⁻¹ s⁻¹

**Q.** What about the Km (purified protein) of the same molecule?
**A.** 53.7 ± 10.6 µM

**Q.** What about the kcat (purified protein) of the same molecule?
**A.** 1.34 s⁻¹

**Q.** What about the kcat/Km (purified protein) of the same molecule?
**A.** 25000 M⁻¹ s⁻¹
